Assay [1] concerns the target recombinant Fel d 1 produced with a myc-myc-hexahistidine tag (rFel d 1.mmh) (cat, UniProt P30440-1 18-109; P30438 23-92). The experiment in a line: SPR; 25°C. A general note: SPR reads the build-up and loss of mass on a sensor chip optically.
Assay [2] deals with rFel d 1.mFc. The experiment in a line: SPR; 25°C; dimeric.

Chain of recombinant Fel d 1 produced with a myc-myc-hexahistidine tag (rFel d 1.mmh) (P30440 other isoform, or with tags, fused parts or gaps): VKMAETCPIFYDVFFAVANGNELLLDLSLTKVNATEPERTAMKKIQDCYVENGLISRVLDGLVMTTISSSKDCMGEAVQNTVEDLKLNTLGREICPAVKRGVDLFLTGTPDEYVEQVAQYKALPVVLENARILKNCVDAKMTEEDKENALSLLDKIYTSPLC

B1: REGN1909 (antibody, V domains shown)
VH: EVQLVESGGGLVQPGGSLRLSCAASGFTFSSYAMSWVRQAPGKGLEWVSAISGRGYNADYADSVKGRFTISRDNSKNTLYLQMNSLRAEDTAVYYCAKLEYFDYWGQGTLVTVSS
VL: DIQMTQSPSTLSASVGDRVTITCRASQSISSWLAWYQQKPGKAPKLLIYKASSLESGVPSRFSGSGSGTDFTLTISSLRPEDFATYYCQQYNSYPLTFGGGTKVEIK
In the case of B1, the Kd (commonly the constant that tells how readily two partners part at equilibrium) amounted to 0.912 nM in assay [1] and 0.0978 nM in assay [2].
